{
  "source": "patent US20210101970A1",
  "about": "(Pfizer, published 2021)",
  "binders": {"B1": {"name": "Chimeric 11G2 (antibody, human IgG1, kappa, V domains shown)", "VH": "EVKLVESGGGLVQPGGSLRLSCATSGFTFTDFYMSWVRQPPGRALEWLGFIRNKANGYTTEYSASVKGRFTISRDNSQSILYLQMNTLRAGDSATYYCVRVYGSTLHYWGQGTILTVSS", "VL": "DVVVTQSPDSLAVSLGQRATISCRASESVEYHGTSLMHWYQQKPGQPPKLLIYAASNVESGVPARFSGSGSGTDFSLNIHPVEEGDIAMYFCQQSRKVPWTFGGGTKLEIKR", "notes": "mouse V regions on human IgG1/kappa; also called 11G2 (chimeric)"}, "B2": {"name": "Afucosyl humanized 11G2 154/155 (antibody, human IgG1, kappa, V domains shown)", "VH": "EVQLVESGGGLVQPGGSLRLSCAASGFTFTDFYMSWVRQAPGKGLEWVGFIRNKANGYTTEYSASVKGRFTISRDNAKNSLYLQMNSLRAEDTAVYYCARVYGSTLHYWGQGTLVTVSS", "VL": "DIQMTQSPSSLSASVGDRVTITCRASESVEYHGTSLMHWYQQKPGKAPKLLIYAASNVESGVPSRFSGSGSGTDFTLTISSLQPEDFATYYCQQSRKVPWTFGQGTKVEIKR", "modifications": "afucosylated Fc glycan (Asn297)", "notes": "also called afucosyl h11G2 XC154/XC155; afucosylated h11G2 VL XC154/VH XC155"}, "B3": {"name": "2C9 (reference antibody) (antibody, human IgG1, kappa, V domains shown)", "VH": "EVQLVESGGGLVKPGGSLRLSCAASGFTFSTNAMNWVRQAPGKGLERVARIRSKSNNYATYYADSVKDRFTISRDDSKNTLYLQMNSLKTEDTAVYYCVTMIPFAYWGQGTLVTVSS", "VL": "not shown", "notes": "fucosylated"}},
  "key": {"[1]": {"biological_target": "T1, cynomolgus monkey CXCR5 (cynomolgus monkey, UniProt P32302 1-372 (human entry))", "T1 chain": "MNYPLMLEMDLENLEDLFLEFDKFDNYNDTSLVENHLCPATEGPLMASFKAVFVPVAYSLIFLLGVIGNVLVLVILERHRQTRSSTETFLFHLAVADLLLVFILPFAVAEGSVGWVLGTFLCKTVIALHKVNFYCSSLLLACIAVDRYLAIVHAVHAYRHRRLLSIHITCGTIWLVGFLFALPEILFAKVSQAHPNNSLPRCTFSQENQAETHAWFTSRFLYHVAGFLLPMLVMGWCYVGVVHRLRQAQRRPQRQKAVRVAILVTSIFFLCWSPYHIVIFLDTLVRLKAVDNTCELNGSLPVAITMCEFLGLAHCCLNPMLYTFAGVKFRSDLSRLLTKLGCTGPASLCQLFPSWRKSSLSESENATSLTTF", "test": "cell-based or functional assay"}, "[2]": {"biological_target": "T2, human CXCR5 (human, UniProt P32302 1-372)", "T2 construct": "also called hCXCR5; C-X-C chemokine receptor type 5", "T2 sequence": "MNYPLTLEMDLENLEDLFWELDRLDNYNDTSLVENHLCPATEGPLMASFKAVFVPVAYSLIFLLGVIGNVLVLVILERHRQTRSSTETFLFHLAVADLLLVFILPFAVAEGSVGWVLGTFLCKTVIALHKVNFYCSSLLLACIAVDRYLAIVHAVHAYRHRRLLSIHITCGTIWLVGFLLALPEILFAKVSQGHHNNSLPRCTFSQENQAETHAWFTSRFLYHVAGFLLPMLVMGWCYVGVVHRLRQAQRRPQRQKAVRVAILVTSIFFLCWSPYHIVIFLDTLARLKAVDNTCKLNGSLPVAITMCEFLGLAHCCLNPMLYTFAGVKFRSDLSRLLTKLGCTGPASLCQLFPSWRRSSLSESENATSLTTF", "test": "flow cytometry, human tonsil Tfh cells", "protocol": "Following centrifugation, red blood cell lysis was performed on the pellet using an ammonium chloride lysis buffer. Platelets were removed using a low speed centrifugation (200×g) for 10 minutes in Phosphate-Buffered Saline (PBS)/2% FBS/2 mM Ethylenediaminetetraacetic acid (EDTA). CD4+ T cells were purified out of the TMC mixture using an EasySep™ Human CD4+ T Cell Enrichment Kit, according to the manufacturer's instructions ([…] Technologies, Vancouver, BC, Canada).\nFollowing isolation, PBMCs were plated at a density of 1.0×10⁵ cells per well and CD4+ TMCs were plated at a density of 2.0×10⁵ cells per well in isolation buffer (PBS containing 1% FBS and 1 mM EDTA) in 96 well U-bottom plates. The plates were then centrifuged at 1500 rpm for 5 minutes at room temperature. PBMCs and CD4+ TMCs were resuspended in Fluorescence-activated cell sorting (FACS) buffer (PBS containing 1% FBS) containing human crystallized fragment Fc block (2 μL per well; Biolegend) and 4-fold serial dilutions of the antibodies (11-point dilution series, beginning at 5000 ng/mL for PBMCs and 312.5 ng/mL for CD4+ TMCs) and incubated on ice for 2 hours. PBMCs and CD4+ TMCs were then washed with FACS buffer 3 times and resuspended in 50-100 μL of FACs buffer containing fluorescent-conjugated antibodies for staining lymphocyte subsets and a fluorescent-conjugated secondary antibody against human Ig to detect CXCR5 monoclonal antibodies (mAbs). After incubation for 30 minutes at 4° C., PBMCs and CD4+ TMCs were washed with FACS buffer 2 times and resuspended in 125 μL of 0.5% paraformaldehyde (PFA) in PBS. Plates were stored at 4° C. until analysis by flow cytometry (BD LSRFortessa™ Cell Analyzer, BD Biosciences, Franklin Lakes, N.J.).\nThe cell binding titration curves were generated by plotting the gMFI of the antigen binding population against the log of CXCR5 antibody concentration. EC₅₀ values were determined using GraphPad Prism® (version 6.0, GraphPad Software, Inc, San Diego, Calif.) nonlinear-regression curve fits and a sigmoidal log of agonist dose-response model, according to the following equation"}, "[3]": {"biological_target": "T2, human CXCR5", "test": "flow cytometry on Raji cells, fucosylated chimeric antibody", "protocol": "The fucosylated chimeric antibodies were then purified using protein A columns. The apparent affinity (cell binding EC50s) of chimeric antibody binding to Raji cells was determined by flow cytometry using a FACSVerse Analyzer (BD Bioscience, Franklin Lakes, N.J.) and are shown in Table 3."}, "[4]": {"biological_target": "T3, CXCR3 (human, UniProt P49682 1-368)", "T3 construct": "whole, on cells", "T3 sequence (looked up)": "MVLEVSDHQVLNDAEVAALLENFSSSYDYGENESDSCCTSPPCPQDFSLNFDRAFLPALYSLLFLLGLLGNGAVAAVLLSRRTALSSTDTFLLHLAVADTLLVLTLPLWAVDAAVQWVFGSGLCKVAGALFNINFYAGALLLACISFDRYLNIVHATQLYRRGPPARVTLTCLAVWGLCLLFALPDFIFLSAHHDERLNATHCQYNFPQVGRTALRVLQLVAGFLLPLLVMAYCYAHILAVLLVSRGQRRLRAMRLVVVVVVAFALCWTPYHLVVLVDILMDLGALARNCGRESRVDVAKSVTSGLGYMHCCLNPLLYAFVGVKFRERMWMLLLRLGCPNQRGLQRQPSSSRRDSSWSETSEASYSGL", "test": "flow cytometry (GMFI) on fixed CXCR3 cells, chimeric antibody, goat anti-human PE", "protocol": "To determine the specificity of the antibodies for CXCR5, the binding of the antibodies to cells expressing other […] was assessed. Briefly, FlowCellect chemokine receptor cell lines expressing CXCR1, CXCR2, or CXCR3 (EMD Millipore, Billerica, Mass.), and Jurkats (ATCC, Manassas, Va.), which express CXCR4, were stained with 5 μg/ml or 10 μg/ml of each anti-CXCR5 chimeric antibody. The cells were then incubated with goat anti-human conjugated with PE (Southern Biotech, Birmingham, Ala.) prior to analysis by flow cytometry using a FACSVerse Analyzer (BD Biosciences, Franklin Lakes, N.J.)."}, "[5]": {"biological_target": "T1, cynomolgus monkey CXCR5", "test": "flow cytometry, cynomolgus PBMC Tfh-like cells", "protocol": "The apparent affinity for cell surface CXCR5 of chimeric and humanized CXCR5 fucosylated and afucosylated antibodies was assessed. More specifically, to determine the apparent affinity of chimeric and humanized CXCR5 antibodies to CXCR5-expressing cells, cell binding experiments were performed on human and cynomolgus monkey peripheral blood mononuclear cells (PBMCs) and human tonsillar mononuclear cells (TMCs). The apparent affinity of CXCR5 mab binding to CXCR5+ cells (B cells, bona fide Tfh cells, and circulating Tfh-like cells) was calculated as the EC50 of equilibrium binding titration curves in which the geometric mean fluorescence intensity (gMFI) of the antigen binding population was quantified by flow cytometry.\nFollowing isolation, PBMCs were plated at a density of 1.0×10⁵ cells per well and CD4+ TMCs were plated at a density of 2.0×10⁵ cells per well in isolation buffer (PBS containing 1% FBS and 1 mM EDTA) in 96 well U-bottom plates. The plates were then centrifuged at 1500 rpm for 5 minutes at room temperature. PBMCs and CD4+ TMCs were resuspended in Fluorescence-activated cell sorting (FACS) buffer (PBS containing 1% FBS) containing human crystallized fragment Fc block (2 μL per well; Biolegend) and 4-fold serial dilutions of the antibodies (11-point dilution series, beginning at 5000 ng/mL for PBMCs and 312.5 ng/mL for CD4+ TMCs) and incubated on ice for 2 hours. […]"}, "[6]": {"biological_target": "T2, human CXCR5", "test": "flow cytometry, B cells from human PBMCs (FIG. 5); comparator 2C9"}},
  "data": [
    {"binder": "B1", "values": [
      {"measurement": "ADCC Activity Average EC50, NHP B Cells", "setting": "[1]", "value": 0.115, "unit": "nM"},
      {"measurement": "EC50", "setting": "[2]", "value": 0.00846, "unit": "nM"},
      {"measurement": "EC50", "setting": "[3]", "value": 0.0175, "unit": "nM"},
      {"measurement": "binding result", "setting": "[4]", "value": "no binding (tested: 5 or 10 µg/ml (not on the sheet))"}
    ]},
    {"binder": "B2", "values": [
      {"measurement": "ADCC Activity Average EC50, NHP B Cells", "setting": "[1]", "value": 0.0153, "unit": "nM"},
      {"measurement": "EC50", "setting": "[2]", "value": 0.0106, "unit": "nM"},
      {"measurement": "EC50", "setting": "[5]", "value": 0.0105, "unit": "nM"}
    ]},
    {"binder": "B3", "values": [
      {"measurement": "EC50", "setting": "[6]", "value": 0.0624, "unit": "nM"}
    ]}
  ]
}
